In US20220119541A1:

Target: human GITR (full length, on cells) (human) (UniProt Q9Y5U5)
Test: FACS dot plot, spleen cells of GITR humanized (B-hGITR) mice, FITC against mTcRβ PerCP [panel hIgG1]

Sequence of human GITR (full length, on cells) (human) (Q9Y5U5 26-241): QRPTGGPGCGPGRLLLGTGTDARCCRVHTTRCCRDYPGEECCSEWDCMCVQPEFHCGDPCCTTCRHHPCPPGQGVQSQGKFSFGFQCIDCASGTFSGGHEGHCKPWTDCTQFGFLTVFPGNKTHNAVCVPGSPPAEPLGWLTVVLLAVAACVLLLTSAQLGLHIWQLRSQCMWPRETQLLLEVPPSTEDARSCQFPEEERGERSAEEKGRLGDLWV

isotype control IgG (antibody)
FL3-H, FL1-H subset (percent of cells in the FITC-high, mTcRβ-positive gate): 1.08%
